This note sets out measurements from the RNAGym collection of RNA variant scans (doi:10.1093/molbev/msab373).

B1: Azoarcus group I ribozyme (parent)
chain: GUGCCUUGCGCCGGGAAACCACGCAAGGGAUGGUGUCAAAUUCGGCGAAACCUAAGCGCCCGCCCGGGCGUAUGGCAACGCCGAGCCAAGCUUCGGCGCCUGCGCCGAUGAAGGUGUAGAGACUAGACGGCACCCACCUAAGGCAAACGCUAUGGUGAAGGCAUAGUCCAGGGAGUGGCGAAAGUCACACAAACCGG

This series covers variants of B1. The experiment in a line: reverse-splicing fitness (ratio to wild type); higher = more active; in vitro selection; Mg2+ level not given. The procedure, abridged: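 An in vitro group I ribozyme library with randomized positions was T7-transcribed and gel-purified. In triplicate, 10 pmol RNA in EPPS pH 7.5 was reacted with 50 pmoles of a 30-nt RNA substrate for 1 h at 37 °C across several added MgCl2 levels (1–48 mM), then stopped with EDTA. Products were reverse transcribed from a substrate-complementary primer, PCR-amplified and sequenced (HiSeq 4000). Fitness is a variant's read proportion after selection over that before, normalised to wild type.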
As for GUGCCUUGCGCCGGGAAACCACGCAAGGGAUGGUGUCAAAUUCGGCGAAACCUAAGCGCCCGCCCGGGCGUAUGGCAACGCGGAGCCAAGCUUCGGCGCCUGCGCCGAUGAAGGUGUAGCGACUAGACGGCACCCACCUAAGGCUAACGGUAUGGUGAAGGCAUAGUCCAGGGAGAGGCGAAAGUCACACAAACCGG, the reverse-splicing fitness was determined as 0.00942.
For GUGCCUUGCGCCGGGAAACCACGCAAGGGAUGGUGUCAAAUUCGGCGAAACCUAAGCGCCCGCCCGGGCGUAUGGCAACGCUGAGCCAAGCUUCGGCGCCUGCGCCGAUGAAGGUGUAGGGACUAGACGGCACCCACCUAAGGCCAACGUUAUGGUGAAGGCAUAGUCUAGGGAGAGGCGAAAGUCACACAAACCGG, the reverse-splicing fitness is 0.0235.
GUGCCUUGCGCCGGGAAACCACGCAAGGGAUGGUGUCAAAUUCGGCGAAACCUAAGCGCCCGCCCGGGCGUAUGGCAACGCCGAGCCAAGCUUCGGCGCCUGCGCCGAUGUAGGUGUAGGGACUAGACGGCACCCACCUAAGGCGAACGCUAUGGUGAAGGCAUAGUCAAGGGAGUGGCGAAAGUCACACAAACCGG: the reverse-splicing fitness stood at 0.119.
With GUGCCUUGCGCCGGGAAACCACGCAAGGGAUGGUGUCAAAUUCGGCGAAACCUAAGCGCCCGCCCGGGCGUAUGGCAACGCCGAGCCAAGCUUCGGCGCCUGCGCCGAUGUAGGUGUAGUGACUAGACGGCACCCACCUAAGGCCAACGUUAUGGUGAAGGCAUAGUCGAGGGAGUGGCGAAAGUCACACAAACCGG the figure was 0.0115.
With GUGCCUUGCGCCGGGAAACCACGCAAGGGAUGGUGUCAAAUUCGGCGAAACCUAAGCGCCCGCCCGGGCGUAUGGCAACGCAGAGCCAAGCUUCGGCGCCUGCGCCGAUGUAGGUGUAGGGACUAGACGGCACCCACCUAAGGCAAACGGUAUGGUGAAGGCAUAGUCCAGGGAGUGGCGAAAGUCACACAAACCGG, the reverse-splicing fitness is 0.00697.
With GUGCCUUGCGCCGGGAAACCACGCAAGGGAUGGUGUCAAAUUCGGCGAAACCUAAGCGCCCGCCCGGGCGUAUGGCAACGCGGAGCCAAGCUUCGGCGCCUGCGCCGAUGCAGGUGUAGUGACUAGACGGCACCCACCUAAGGCAAACGGUAUGGUGAAGGCAUAGUCUAGGGAGGGGCGAAAGUCACACAAACCGG the figure was 0.00294; with GUGCCUUGCGCCGGGAAACCACGCAAGGGAUGGUGUCAAAUUCGGCGAAACCUAAGCGCCCGCCCGGGCGUAUGGCAACGCCGAGCCAAGCUUCGGCGCCUGCGCCGAUGGAGGUGUAGCGACUAGACGGCACCCACCUAAGGCAAACGGUAUGGUGAAGGCAUAGUCAAGGGAGCGGCGAAAGUCACACAAACCGG, 0.00784; with GUGCCUUGCGCCGGGAAACCACGCAAGGGAUGGUGUCAAAUUCGGCGAAACCUAAGCGCCCGCCCGGGCGUAUGGCAACGCGGAGCCAAGCUUCGGCGCCUGCGCCGAUGAAGGUGUAGUGACUAGACGGCACCCACCUAAGGCGAACGAUAUGGUGAAGGCAUAGUCCAGGGAGGGGCGAAAGUCACACAAACCGG, 0.00517.
As for GUGCCUUGCGCCGGGAAACCACGCAAGGGAUGGUGUCAAAUUCGGCGAAACCUAAGCGCCCGCCCGGGCGUAUGGCAACGCUGAGCCAAGCUUCGGCGCCUGCGCCGAUGUAGGUGUAGGGACUAGACGGCACCCACCUAAGGCUAACGUUAUGGUGAAGGCAUAGUCGAGGGAGUGGCGAAAGUCACACAAACCGG, the reverse-splicing fitness was 0.00885.
With GUGCCUUGCGCCGGGAAACCACGCAAGGGAUGGUGUCAAAUUCGGCGAAACCUAAGCGCCCGCCCGGGCGUAUGGCAACGCUGAGCCAAGCUUCGGCGCCUGCGCCGAUGAAGGUGUAGGGACUAGACGGCACCCACCUAAGGCUAACGGUAUGGUGAAGGCAUAGUCCAGGGAGGGGCGAAAGUCACACAAACCGG the figure was 0.00275.
For GUGCCUUGCGCCGGGAAACCACGCAAGGGAUGGUGUCAAAUUCGGCGAAACCUAAGCGCCCGCCCGGGCGUAUGGCAACGCCGAGCCAAGCUUCGGCGCCUGCGCCGAUGGAGGUGUAGUGACUAGACGGCACCCACCUAAGGCCAACGCUAUGGUGAAGGCAUAGUCCAGGGAGUGGCGAAAGUCACACAAACCGG, the reverse-splicing fitness came to 0.701.
Under GUGCCUUGCGCCGGGAAACCACGCAAGGGAUGGUGUCAAAUUCGGCGAAACCUAAGCGCCCGCCCGGGCGUAUGGCAACGCGGAGCCAAGCUUCGGCGCCUGCGCCGAUGAAGGUGUAGCGACUAGACGGCACCCACCUAAGGCCAACGAUAUGGUGAAGGCAUAGUCGAGGGAGAGGCGAAAGUCACACAAACCGG stands 0.0302.
Under GUGCCUUGCGCCGGGAAACCACGCAAGGGAUGGUGUCAAAUUCGGCGAAACCUAAGCGCCCGCCCGGGCGUAUGGCAACGCUGAGCCAAGCUUCGGCGCCUGCGCCGAUGGAGGUGUAGGGACUAGACGGCACCCACCUAAGGCUAACGAUAUGGUGAAGGCAUAGUCAAGGGAGGGGCGAAAGUCACACAAACCGG stands 0.00458.
Turning to GUGCCUUGCGCCGGGAAACCACGCAAGGGAUGGUGUCAAAUUCGGCGAAACCUAAGCGCCCGCCCGGGCGUAUGGCAACGCUGAGCCAAGCUUCGGCGCCUGCGCCGAUGGAGGUGUAGUGACUAGACGGCACCCACCUAAGGCGAACGUUAUGGUGAAGGCAUAGUCGAGGGAGAGGCGAAAGUCACACAAACCGG, the reverse-splicing fitness stood at 0.00913.
In the case of GUGCCUUGCGCCGGGAAACCACGCAAGGGAUGGUGUCAAAUUCGGCGAAACCUAAGCGCCCGCCCGGGCGUAUGGCAACGCAGAGCCAAGCUUCGGCGCCUGCGCCGAUGUAGGUGUAGAGACUAGACGGCACCCACCUAAGGCUAACGCUAUGGUGAAGGCAUAGUCGAGGGAGCGGCGAAAGUCACACAAACCGG, the reverse-splicing fitness came out at 0.0142.
As for GUGCCUUGCGCCGGGAAACCACGCAAGGGAUGGUGUCAAAUUCGGCGAAACCUAAGCGCCCGCCCGGGCGUAUGGCAACGCAGAGCCAAGCUUCGGCGCCUGCGCCGAUGCAGGUGUAGGGACUAGACGGCACCCACCUAAGGCGAACGUUAUGGUGAAGGCAUAGUCCAGGGAGUGGCGAAAGUCACACAAACCGG, the reverse-splicing fitness is 0.0128.
As to GUGCCUUGCGCCGGGAAACCACGCAAGGGAUGGUGUCAAAUUCGGCGAAACCUAAGCGCCCGCCCGGGCGUAUGGCAACGCUGAGCCAAGCUUCGGCGCCUGCGCCGAUGUAGGUGUAGCGACUAGACGGCACCCACCUAAGGCGAACGGUAUGGUGAAGGCAUAGUCAAGGGAGUGGCGAAAGUCACACAAACCGG, the reverse-splicing fitness came out at 0.00919.
As to GUGCCUUGCGCCGGGAAACCACGCAAGGGAUGGUGUCAAAUUCGGCGAAACCUAAGCGCCCGCCCGGGCGUAUGGCAACGCCGAGCCAAGCUUCGGCGCCUGCGCCGAUGAAGGUGUAGUGACUAGACGGCACCCACCUAAGGCUAACGCUAUGGUGAAGGCAUAGUCGAGGGAGCGGCGAAAGUCACACAAACCGG, the reverse-splicing fitness amounted to 0.0807.
Under GUGCCUUGCGCCGGGAAACCACGCAAGGGAUGGUGUCAAAUUCGGCGAAACCUAAGCGCCCGCCCGGGCGUAUGGCAACGCUGAGCCAAGCUUCGGCGCCUGCGCCGAUGCAGGUGUAGCGACUAGACGGCACCCACCUAAGGCGAACGCUAUGGUGAAGGCAUAGUCGAGGGAGGGGCGAAAGUCACACAAACCGG stands 0.0058; under GUGCCUUGCGCCGGGAAACCACGCAAGGGAUGGUGUCAAAUUCGGCGAAACCUAAGCGCCCGCCCGGGCGUAUGGCAACGCUGAGCCAAGCUUCGGCGCCUGCGCCGAUGGAGGUGUAGUGACUAGACGGCACCCACCUAAGGCUAACGCUAUGGUGAAGGCAUAGUCCAGGGAGCGGCGAAAGUCACACAAACCGG, 0.0196; under GUGCCUUGCGCCGGGAAACCACGCAAGGGAUGGUGUCAAAUUCGGCGAAACCUAAGCGCCCGCCCGGGCGUAUGGCAACGCGGAGCCAAGCUUCGGCGCCUGCGCCGAUGCAGGUGUAGCGACUAGACGGCACCCACCUAAGGCUAACGUUAUGGUGAAGGCAUAGUCAAGGGAGUGGCGAAAGUCACACAAACCGG, 0.0102.
With GUGCCUUGCGCCGGGAAACCACGCAAGGGAUGGUGUCAAAUUCGGCGAAACCUAAGCGCCCGCCCGGGCGUAUGGCAACGCGGAGCCAAGCUUCGGCGCCUGCGCCGAUGUAGGUGUAGAGACUAGACGGCACCCACCUAAGGCAAACGCUAUGGUGAAGGCAUAGUCGAGGGAGCGGCGAAAGUCACACAAACCGG the figure was 0.0227.
Under GUGCCUUGCGCCGGGAAACCACGCAAGGGAUGGUGUCAAAUUCGGCGAAACCUAAGCGCCCGCCCGGGCGUAUGGCAACGCAGAGCCAAGCUUCGGCGCCUGCGCCGAUGUAGGUGUAGGGACUAGACGGCACCCACCUAAGGCGAACGUUAUGGUGAAGGCAUAGUCGAGGGAGAGGCGAAAGUCACACAAACCGG stands 0.0133; under GUGCCUUGCGCCGGGAAACCACGCAAGGGAUGGUGUCAAAUUCGGCGAAACCUAAGCGCCCGCCCGGGCGUAUGGCAACGCAGAGCCAAGCUUCGGCGCCUGCGCCGAUGAAGGUGUAGCGACUAGACGGCACCCACCUAAGGCUAACGCUAUGGUGAAGGCAUAGUCAAGGGAGAGGCGAAAGUCACACAAACCGG, 0.0129; under GUGCCUUGCGCCGGGAAACCACGCAAGGGAUGGUGUCAAAUUCGGCGAAACCUAAGCGCCCGCCCGGGCGUAUGGCAACGCCGAGCCAAGCUUCGGCGCCUGCGCCGAUGGAGGUGUAGUGACUAGACGGCACCCACCUAAGGCAAACGAUAUGGUGAAGGCAUAGUCAAGGGAGUGGCGAAAGUCACACAAACCGG, 0.00359.
Consider GUGCCUUGCGCCGGGAAACCACGCAAGGGAUGGUGUCAAAUUCGGCGAAACCUAAGCGCCCGCCCGGGCGUAUGGCAACGCCGAGCCAAGCUUCGGCGCCUGCGCCGAUGAAGGUGUAGAGACUAGACGGCACCCACCUAAGGCGAACGAUAUGGUGAAGGCAUAGUCUAGGGAGAGGCGAAAGUCACACAAACCGG, for which the reverse-splicing fitness was 0.0484.
On to GUGCCUUGCGCCGGGAAACCACGCAAGGGAUGGUGUCAAAUUCGGCGAAACCUAAGCGCCCGCCCGGGCGUAUGGCAACGCCGAGCCAAGCUUCGGCGCCUGCGCCGAUGAAGGUGUAGCGACUAGACGGCACCCACCUAAGGCGAACGAUAUGGUGAAGGCAUAGUCCAGGGAGUGGCGAAAGUCACACAAACCGG, for which the reverse-splicing fitness is 0.32.
Turning to GUGCCUUGCGCCGGGAAACCACGCAAGGGAUGGUGUCAAAUUCGGCGAAACCUAAGCGCCCGCCCGGGCGUAUGGCAACGCAGAGCCAAGCUUCGGCGCCUGCGCCGAUGGAGGUGUAGUGACUAGACGGCACCCACCUAAGGCUAACGCUAUGGUGAAGGCAUAGUCCAGGGAGUGGCGAAAGUCACACAAACCGG, the reverse-splicing fitness was 0.0342.
Turning to GUGCCUUGCGCCGGGAAACCACGCAAGGGAUGGUGUCAAAUUCGGCGAAACCUAAGCGCCCGCCCGGGCGUAUGGCAACGCGGAGCCAAGCUUCGGCGCCUGCGCCGAUGUAGGUGUAGGGACUAGACGGCACCCACCUAAGGCGAACGCUAUGGUGAAGGCAUAGUCUAGGGAGAGGCGAAAGUCACACAAACCGG, the reverse-splicing fitness stood at 0.0198.
Take GUGCCUUGCGCCGGGAAACCACGCAAGGGAUGGUGUCAAAUUCGGCGAAACCUAAGCGCCCGCCCGGGCGUAUGGCAACGCCGAGCCAAGCUUCGGCGCCUGCGCCGAUGAAGGUGUAGCGACUAGACGGCACCCACCUAAGGCGAACGAUAUGGUGAAGGCAUAGUCUAGGGAGGGGCGAAAGUCACACAAACCGG: the reverse-splicing fitness came out at 0.00697.
